Data on one molecule can be found in publication doi:10.1101/2020.03.25.007906 (bioRxiv, 2020).

As a reminder, the Kd is the free concentration of one partner at which half of the binding sites on the other are occupied at equilibrium, for simple one-to-one binding.

Test [1] concerns the target T1, purified recombinant drDnaB (Deinococcus radiodurans R1, UniProt Q9RWW6 1-448).
T1 sequence (looked up): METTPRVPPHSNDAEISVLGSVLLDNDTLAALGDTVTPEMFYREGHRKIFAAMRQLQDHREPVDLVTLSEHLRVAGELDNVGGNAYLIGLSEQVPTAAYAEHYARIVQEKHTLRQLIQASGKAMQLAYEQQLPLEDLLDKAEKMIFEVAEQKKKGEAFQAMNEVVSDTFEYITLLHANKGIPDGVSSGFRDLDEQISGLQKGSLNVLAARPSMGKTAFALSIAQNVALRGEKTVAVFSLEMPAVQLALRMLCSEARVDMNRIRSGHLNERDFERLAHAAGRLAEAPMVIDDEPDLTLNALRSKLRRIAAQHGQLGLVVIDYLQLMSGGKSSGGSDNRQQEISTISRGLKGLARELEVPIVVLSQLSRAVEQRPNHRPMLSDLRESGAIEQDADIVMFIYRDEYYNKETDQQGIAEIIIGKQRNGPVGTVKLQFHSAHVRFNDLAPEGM
Kind of test: SPR.

Test [2] has as its target T2, purified recombinant drDnaA (Deinococcus radiodurans R1, UniProt Q9RYE7 1-466).
T2 sequence (looked up): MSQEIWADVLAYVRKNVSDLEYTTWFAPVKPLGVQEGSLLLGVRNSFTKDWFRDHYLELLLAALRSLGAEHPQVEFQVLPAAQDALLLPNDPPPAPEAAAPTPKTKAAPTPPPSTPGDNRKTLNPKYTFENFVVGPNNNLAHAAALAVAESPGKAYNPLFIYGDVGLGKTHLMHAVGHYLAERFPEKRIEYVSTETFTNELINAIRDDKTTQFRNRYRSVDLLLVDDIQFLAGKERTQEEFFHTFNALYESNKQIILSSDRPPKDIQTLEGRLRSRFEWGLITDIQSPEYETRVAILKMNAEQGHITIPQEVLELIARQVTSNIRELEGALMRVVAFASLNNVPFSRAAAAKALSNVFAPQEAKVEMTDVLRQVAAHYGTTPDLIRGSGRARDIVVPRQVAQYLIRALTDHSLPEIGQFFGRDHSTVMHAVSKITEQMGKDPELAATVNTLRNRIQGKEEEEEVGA
Kind of test: SPR. (In general: SPR reads the build-up and loss of mass on a sensor chip optically.)

B1: recombinant PprA (natural protein, Deinococcus radiodurans, UniProt O32504 1-300, looked up)
chain: MLPLAFLICSGHNKGSMARAKAKDQTDGIYAAFDTLMSTAGVDSQIAALAASEADAGTLDAALTQSLQEAQGRWGLGLHHLRHEARLTDDGDIEILTDGRPSARVSEGFGALAQAYAPMQALDERGLSQWAALGEGYRAPGDLPLAQLKVLIEHARDFETDWSAGRGETFQRVWRKGDTLFVEVARPASAEAALSDAAWDVIASIKDRAFQRELMRRSEKDGMLGALLGARHAGAKANLAQLPEAHFTVQAFVQTLSGAAARNAEEYRAALKTAAAALEEYQGVTTRQLSEVLRHGLRES
For the molecule B1, the equilibrium dissociation constant (Kd) stood at 971 nM in test [1] and 541 nM in test [2].
